B1: HDV Ribozyme (parent)
chain: GGCCGGCAUGGUCCCAGCCUCCUCGCUGGCGCCGGCUGGGCAACAUUCCGAGGGGACCGUCCCCUCGGUAAUGGCGAAUGGGACCCA

Variants of: B1
Assay: self-cleavage, relative activity (ratio to wild type); higher = more cleavage; co-transcriptional
Variant G11C C15G has a self-cleavage of 0.131. Work on U9G G31A yielded a self-cleavage of 0.675. For U9G G31U, the self-cleavage was 0.554. For G10A A56C, the self-cleavage was 0.78. For G10A A56G, the self-cleavage was 0.695. Work on G10C C57G yielded a self-cleavage of 0.81. For G10A G39A, the self-cleavage was 0.321. Variant U9G G82A has a self-cleavage of 0.739. For G10C C62U, the self-cleavage was 0.989. G10C C62A gave a self-cleavage of 0.919. Variant G11C C18G has a self-cleavage of 0. With G11A A45U the self-cleavage was 0.222. G11A A45G showed a self-cleavage of 0.403. G11A A45C showed a self-cleavage of 0.155. Work on G11A A56G yielded a self-cleavage of 0.346. Work on G11C U27G yielded a self-cleavage of 0.356. G10U G28C gave a self-cleavage of 0.0941. G10U G28U gave a self-cleavage of 0.109. Variant U9G C62A has a self-cleavage of 1.14. Variant G10U C57U has a self-cleavage of 0.855. With G10U C18A the self-cleavage was 0.0175. G10C A83G showed a self-cleavage of 0.578. U9G G28U showed a self-cleavage of 0.151. Variant G10C C49A has a self-cleavage of 0.443. Work on G10C C49U yielded a self-cleavage of 0.89. Variant U9G G29U has a self-cleavage of 0. With G11U A43U the self-cleavage was 0.0893. G11A U69A showed a self-cleavage of 0.166. G10U G76U showed a self-cleavage of 1.14. Variant G11A G28U has a self-cleavage of 0.0339. U9G G40C gave a self-cleavage of 0.437. With U9G G40A the self-cleavage was 1.29. With G10U C49G the self-cleavage was 0.391. Variant G11C C49G has a self-cleavage of 0.0504. In the case of G11U C62U, the self-cleavage is reported as 0.403. G11U C30U gave a self-cleavage of 0.0923. Variant G10U A45C has a self-cleavage of 0.175. G10U A45G showed a self-cleavage of 1.07. With U9G U37C the self-cleavage was 1.37. Work on U9G C85A yielded a self-cleavage of 1.02. Variant G10U U65A has a self-cleavage of 0.665. Work on G10A G29A yielded a self-cleavage of 0.0798. For G10A G29U, the self-cleavage was 0.0275. Variant G10A G29C has a self-cleavage of 0.0767. G10C G54A gave a self-cleavage of 0.831. Variant G11U C18U has a self-cleavage of 0.0504. Variant G11U C18A has a self-cleavage of 0.0674. Work on G11C U72C yielded a self-cleavage of 0.119. For G11C U72G, the self-cleavage was 0. Variant G10A U79G has a self-cleavage of 0.232. G11C U20C showed a self-cleavage of 0.0437. With G10A G52A the self-cleavage was 0.749. G10U A87C showed a self-cleavage of 0.801. For G10U U37C, the self-cleavage was 0.587. Variant G11C A83C has a self-cleavage of 0.158. G11C A83G gave a self-cleavage of 0.123. G10C C84G gave a self-cleavage of 0.578. G10C C84A gave a self-cleavage of 0.705. Work on G11C G80U yielded a self-cleavage of 0.0621. G11C G80C gave a self-cleavage of 0.295. G10C A51C gave a self-cleavage of 0.665. In the case of G10C U12C, the self-cleavage is reported as 0.0978. Variant G11A C14G has a self-cleavage of 0.0346. Variant G10A C41A has a self-cleavage of 0.604. With G10C C26U the self-cleavage was 0.997. For G10C C15A, the self-cleavage was 0.237. In the case of G10C C15U, the self-cleavage is reported as 0.582. In the case of G10U U79G, the self-cleavage is reported as 0.38. With G11A C22U the self-cleavage was 0.041. G11A C22A gave a self-cleavage of 0.0443. For G11C U23C, the self-cleavage was 0.277. Variant U9G U72C has a self-cleavage of 0.415. Work on G11C G55A yielded a self-cleavage of 0.407. Work on G10C C30U yielded a self-cleavage of 0.208. For G10C C58U, the self-cleavage was 1.23. In the case of U9G G67C, the self-cleavage is reported as 1.08. For G10A C85U, the self-cleavage was 0.946. G10A C85A gave a self-cleavage of 1.09. In the case of G10A U47G, the self-cleavage is reported as 0.853. For G11C U46G, the self-cleavage was 0.133. Variant G10A U60C has a self-cleavage of 0.787. Work on G11U A87C yielded a self-cleavage of 0.415. With G11A G31U the self-cleavage was 0.0475. For G11A A83U, the self-cleavage was 0.203. For G11A A83G, the self-cleavage was 0.0831. G10A G82C showed a self-cleavage of 0.231. In the case of G10A U65A, the self-cleavage is reported as 0.831. For G11U C49A, the self-cleavage was 0.307. With G11U C63G the self-cleavage was 0.248. Work on G11A C75U yielded a self-cleavage of 0.144. G10U C30A gave a self-cleavage of 0.158. For G10U G29A, the self-cleavage was 0.0536. Variant G10U G29C has a self-cleavage of 0.0615. For G10C G53C, the self-cleavage was 1.02. Work on G11C G28A yielded a self-cleavage of 0.0225. Variant G11C C21U has a self-cleavage of 0.156. In the case of G11C U47A, the self-cleavage is reported as 0.151. G11U A42U gave a self-cleavage of 0.0852. G10C U37A gave a self-cleavage of 0.177. G10C U37C showed a self-cleavage of 1.05. G10C A16U gave a self-cleavage of 1.49. U9G U20G gave a self-cleavage of 0. G11U C44G gave a self-cleavage of 0.0723. For G11U C44A, the self-cleavage was 0.256. With G11U C44U the self-cleavage was 0.193. G11C C58G gave a self-cleavage of 0.369. With G11C A51U the self-cleavage was 0.426. U9G G68A showed a self-cleavage of 0.831. For U9G G68C, the self-cleavage was 1.02. With G11A G68C the self-cleavage was 0.256. G11C C14G showed a self-cleavage of 0. Work on G10A A87G yielded a self-cleavage of 0.857. With G10C G80C the self-cleavage was 0.104. For G10C G80U, the self-cleavage was 0.219. With U9G U60G the self-cleavage was 0.875. G11C G29U showed a self-cleavage of 0.0225. In the case of G11A U46C, the self-cleavage is reported as 0.166. With G11U C32U the self-cleavage was 0.215. G11C A16U showed a self-cleavage of 0.434. For G10A A71U, the self-cleavage was 0.712. G10U C64U showed a self-cleavage of 0.748. G10U C64A showed a self-cleavage of 0.513. U9G C61A gave a self-cleavage of 1.33. For G10U C84G, the self-cleavage was 0.54. For G10U G73A, the self-cleavage was 0.235. For G11A G67C, the self-cleavage was 0.456. Variant G10A C64G has a self-cleavage of 0.749. With G10A C64A the self-cleavage was 0.646. Work on G11U A56U yielded a self-cleavage of 0.391. In the case of G11U A56G, the self-cleavage is reported as 0.378. Variant G10A U27G has a self-cleavage of 0.98. Work on G10A U27A yielded a self-cleavage of 0.587. For U9G G52C, the self-cleavage was 0.95. Variant U9G G52A has a self-cleavage of 0.712. G11U C21A showed a self-cleavage of 0.0329. In the case of G10A G50A, the self-cleavage is reported as 0.657. G10U G80U showed a self-cleavage of 0.0944. For G10A C58A, the self-cleavage was 0.816. G10A C58U gave a self-cleavage of 0.972. Work on G11C A43G yielded a self-cleavage of 0.0536. For G10C G73U, the self-cleavage was 0.177. In the case of G10C G73A, the self-cleavage is reported as 0.396. For G10A C13U, the self-cleavage was 0.179. G11A G59A showed a self-cleavage of 0.38. Work on G10A G34C yielded a self-cleavage of 0.227. G11U A77U showed a self-cleavage of 0.0906. G11U A77C showed a self-cleavage of 0.0652. G11C G59A showed a self-cleavage of 0.434. With G10U A70U the self-cleavage was 0.602. With G10U A70C the self-cleavage was 0.678. G11A A87U showed a self-cleavage of 0.495. U9G G25U gave a self-cleavage of 0.383. For U9G G25A, the self-cleavage was 0.0755. Variant G10A C14G has a self-cleavage of 0.166. In the case of G10A C14A, the self-cleavage is reported as 0.205. With G11U C36A the self-cleavage was 0.0755. G11C A78U showed a self-cleavage of 0.0437. In the case of G11C A78G, the self-cleavage is reported as 0.229. G11A C26G showed a self-cleavage of 0.99. With G11A C26A the self-cleavage was 0.878. In the case of G10C C75A, the self-cleavage is reported as 0.415. Variant U9G G50A has a self-cleavage of 1.18. G10C C24U showed a self-cleavage of 0.646. With G10C C24A the self-cleavage was 0.692. With U9G C64A the self-cleavage was 0.831. U9G C64U showed a self-cleavage of 0.86. Variant G11U C64A has a self-cleavage of 0.256.

From the RNAGym collection of RNA variant scans (doi:10.7554/elife.80360)
